Here are results for eight molecules from patent US20230265151A1, “GIP/GLP1 CO-AGONIST COMPOUNDS” (priority 2020, published 2023).

*1 amine or outer side, *2 acyl side, *3 side chain or, on linkers, in order; H or OH if unused. Where no end group is shown, it is not given here. Side-chain parts run from the residue outwards. [ ]: non-standard residue; d: D form. The star is where a group is joined. Decanoyl(10-(4-HOOC-PhO)) = O=C(O)c1ccc(OCCCCCCCCCC(=O)*)cc1; αMePhe(2-F) = C[C@](N)(Cc1ccccc1F)C(=O)O; γGlu = O=C(O)[C@H](CCC(=O)[*:2])N[*:1]; αMeY = C[C@](N)(Cc1ccc(O)cc1)C(=O)O; αMeL = CC(C)C[C@](C)(N)C(=O)O; Nle = CCCC[C@H](N)C(=O)O; Orn = NCCC[C@H](N)C(=O)O; AEEA = NCCOCCOCC(=O)O; Aib = CC(C)(N)C(=O)O

Among the targets are human glucagon receptor (human, UniProt P47871 26-477); human GLP-1 receptor (human, UniProt P43220 24-463); hGLP-1R (Homo sapiens, UniProt P43220).
Common to all, as to assay: cell-based or functional assay
The target in another assay is T1, human GIP receptor (human, UniProt P48546 22-466).
T1 sequence (looked up): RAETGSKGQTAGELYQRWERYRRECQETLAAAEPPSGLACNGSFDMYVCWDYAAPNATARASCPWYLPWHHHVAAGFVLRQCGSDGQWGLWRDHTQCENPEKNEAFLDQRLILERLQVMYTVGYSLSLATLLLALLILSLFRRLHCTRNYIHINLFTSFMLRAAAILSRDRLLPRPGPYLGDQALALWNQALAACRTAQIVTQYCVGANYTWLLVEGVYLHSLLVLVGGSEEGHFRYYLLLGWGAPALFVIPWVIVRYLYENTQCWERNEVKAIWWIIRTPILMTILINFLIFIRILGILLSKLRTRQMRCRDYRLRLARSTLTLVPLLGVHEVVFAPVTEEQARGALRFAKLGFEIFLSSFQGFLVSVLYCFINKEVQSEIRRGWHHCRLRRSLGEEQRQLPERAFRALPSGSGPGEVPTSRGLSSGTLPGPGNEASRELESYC

Assay [1] deals with T2, human GIP receptor (human) (UniProt P48546).
T2 sequence (looked up): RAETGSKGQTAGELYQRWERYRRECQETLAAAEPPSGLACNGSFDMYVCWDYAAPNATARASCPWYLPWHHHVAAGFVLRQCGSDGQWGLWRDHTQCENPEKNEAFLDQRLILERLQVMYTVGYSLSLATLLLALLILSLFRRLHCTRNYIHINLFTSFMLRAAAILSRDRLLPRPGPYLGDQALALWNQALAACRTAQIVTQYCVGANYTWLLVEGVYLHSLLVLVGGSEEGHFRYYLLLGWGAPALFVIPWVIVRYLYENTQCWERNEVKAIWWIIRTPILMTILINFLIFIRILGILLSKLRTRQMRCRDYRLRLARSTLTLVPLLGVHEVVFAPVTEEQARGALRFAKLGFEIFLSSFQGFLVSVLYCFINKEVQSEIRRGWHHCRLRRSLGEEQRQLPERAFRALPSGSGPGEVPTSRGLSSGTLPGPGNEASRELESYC

For assay [2], the target named is human glucagon receptor (human) (UniProt P47871).

B1: Example 332 (peptide)
peptide: YXEGTXTSDXSIXLDXIAQXKFIXXLIKGGPSSGAPPPS
modifications: Y-Aib-EGT-αMeF(2F)-TSD-hTyr-SI-αMeL-LD-Orn-IAQ-Aib-K((2-[2-(2-Amino-ethoxy)-ethoxy]-acetyl)2-(γ-Glu)-(10-(4-carboxyphenoxy)decanoyl))FI-(D-Glu)-αMeY-LIK((2-[2-(2-Amino-ethoxy)-ethoxy]-acetyl)2-(γ-Glu)-(10-(4-carboxyphenoxy)decanoyl))GGPSSGAPPPS-NH2
Turning to B1, the figures for the “cAMP EC50 (1.0% HSA)” value with human glucagon receptor, in the assay with human GIP receptor and with human GLP-1 receptor were > 9950 nM, 4.59 nM and 33.3 nM, respectively. Moreover, the “cAMP Emax (1.0% HSA)” value with human GLP-1 receptor came out at 116%.

B2: Example 333 (peptide)
peptide: Y[Aib]EGT[αMePhe(2-F)]TSD[Nle]SI[αMeL]LD[Orn]IAQ[Aib]K([AEEA-AEEA-γGlu-Decanoyl(10-(4-HOOC-PhO))])FI[dE][αMeY]LIK([AEEA-AEEA-γGlu-Decanoyl(10-(4-HOOC-PhO))])GGPSSGAPPPS-NH2
modifications: N-terminus assumed
SMILES: CCCC[C@H](NC(=O)[C@H](CC(=O)O)NC(=O)[C@H](CO)NC(=O)[C@@H](NC(=O)[C@](C)(Cc1ccccc1F)NC(=O)[C@@H](NC(=O)CNC(=O)[C@H](CCC(=O)O)NC(=O)C(C)(C)NC(=O)[C@@H](N)Cc1ccc(O)cc1)[C@@H](C)O)[C@@H](C)O)C(=O)N[C@@H](CO)C(=O)N[C@H](C(=O)N[C@@](C)(CC(C)C)C(=O)N[C@@H](CC(C)C)C(=O)N[C@@H](CC(=O)O)C(=O)N[C@@H](CCCN)C(=O)N[C@H](C(=O)N[C@@H](C)C(=O)N[C@@H](CCC(N)=O)C(=O)NC(C)(C)C(=O)N[C@@H](CCCCNC(=O)COCCOCCNC(=O)COCCOCCNC(=O)CC[C@H](NC(=O)CCCCCCCCCOc1ccc(C(=O)O)cc1)C(=O)O)C(=O)N[C@@H](Cc1ccccc1)C(=O)N[C@H](C(=O)N[C@H](CCC(=O)O)C(=O)N[C@@](C)(Cc1ccc(O)cc1)C(=O)N[C@@H](CC(C)C)C(=O)N[C@H](C(=O)N[C@@H](CCCCNC(=O)COCCOCCNC(=O)COCCOCCNC(=O)CC[C@H](NC(=O)CCCCCCCCCOc1ccc(C(=O)O)cc1)C(=O)O)C(=O)NCC(=O)NCC(=O)N1CCC[C@H]1C(=O)N[C@@H](CO)C(=O)N[C@@H](CO)C(=O)NCC(=O)N[C@@H](C)C(=O)N1CCC[C@H]1C(=O)N1CCC[C@H]1C(=O)N1CCC[C@H]1C(=O)N[C@@H](CO)C(N)=O)[C@@H](C)CC)[C@@H](C)CC)[C@@H](C)CC)[C@@H](C)CC
With B2, the results for the “cAMP EC50 (1.0% HSA)” value in the assay with human glucagon receptor, with human GIP receptor and with human GLP-1 receptor were > 9950 nM, 6.74 nM and 70.4 nM, respectively.

B3: Example 302 (peptide)
peptide: YXEGTXTSDYXIXLDXKAQXEFIXXLIEGGPSSGAPPPSK
modifications: Y-Aib-EGT-αMeF(2F)-TSDY-Aib-I-αMeL-LD-Orn-K((2-[2-(2-Amino-ethoxy)-ethoxy]-acetyl)2-(γ-Glu)-CO-(CH2)10-CH3)AQ-Aib-EFI-(D-Glu)-αMeY-LIEGGPSSGAPPPSK((2-[2-(2-Amino-ethoxy)-ethoxy]-acetyl)2-(γ-Glu)-CO-(CH2)10-CH3)-NH2
With B3, the “cAMP EC50 (1.0% HSA)” value is > 9950 nM in the assay with human glucagon receptor, 0.453 nM with human GIP receptor and 6.55 nM with human GLP-1 receptor. Further, the “cAMP Emax (1.0% HSA)” value in the assay with human GLP-1 receptor was 99.4%. For the same molecule, the values for the cAMP EC50 (in assay [1]; in the assay with hGLP-1R; in assay [2]) were 0.00916 nM, 0.0917 nM and > 9950 nM, respectively. For the same molecule, the figures for the cAMP Emax (in assay [1]; with hGLP-1R) were 100% and 103%, respectively.

B4: Example 292 (peptide)
peptide: YXEGTXTSDKXIXLDXKAQXEFIXXLIEGGPSSGAPPPS
modifications: Y-Aib-EGT-αMeF(2F)-TSDK((2-[2-(2-Amino-ethoxy)-ethoxy]-acetyl)2-(γ-Glu)-CO-(CH2)10-CH3)-Aib-I-αMeL-LD-Orn-K((2-[2-(2-Amino-ethoxy)-ethoxy]-acetyl)2-(γ-Glu)-CO-(CH2)10-CH3)AQ-Aib-EFI-(D-Glu)-αMeY-LIEGGPSSGAPPPS-NH2
Turning to B4, the “cAMP EC50 (1.0% HSA)” value is > 9950 nM with human glucagon receptor, 0.416 nM in the assay with human GIP receptor and 4.35 nM with human GLP-1 receptor. Besides, the cAMP EC50 in assay [1] was 0.0062 nM; with hGLP-1R, 0.0758 nM; in assay [2], > 9950 nM. This molecule came in with a cAMP Emax with hGLP-1R of 104%.

B5: Example 298 (peptide)
peptide: YXEGTXTSDXSIXLDXKAQXKFIXXLIXGGPSSGAPPPS
modifications: Y-Aib-EGT-αMeF(2F)-TSD-4Pal-SI-αMeL-LD-Orn-K((2-[2-(2-Amino-ethoxy)-ethoxy]-acetyl)2-(γ-Glu)-CO-(CH2)10-CH3)AQ-Aib-K((2-[2-(2-Amino-ethoxy)-ethoxy]-acetyl)2-(γ-Glu)-CO-(CH2)10-CH3)FI-(D-Glu)-αMeY-LI-Orn-GGPSSGAPPPS-NH2
With B5, the “cAMP EC50 (1.0% HSA)” value is > 9950 nM in the assay with human glucagon receptor, 0.237 nM in the assay with human GIP receptor and 3.64 nM with human GLP-1 receptor. Moreover, the “cAMP Emax (1.0% HSA)” value with human GIP receptor came out at 95%. Besides, the cAMP Emax in assay [1] was 97.4%; with hGLP-1R, 106%. Further, the cAMP EC50 with hGLP-1R was 0.19 nM; in assay [2] it was > 9950 nM.

B6: Example 342 (peptide)
peptide: YXEGTXTSDXXIXLDXIAQXEFIKXLIKGGPSSGAPPPS
modifications: Y-Aib-EGT-αMeF(2F)-TSD-4Pal-Aib-I-αMeL-LD-Orn-IAQ-Aib-EFIK((2-[2-(2-Amino-ethoxy)-ethoxy]-acetyl)3-(γ-Glu)-CO-(CH2)12-CO2H)-αMeY-LIK((2-[2-(2-Amino-ethoxy)-ethoxy]-acetyl)3-(γ-Glu)-CO-(CH2)12-CO2H)GGPSSGAPPPS-NH2
Turning to B6, the “cAMP EC50 (1.0% HSA)” value with human glucagon receptor was > 9950 nM; with human GIP receptor it was 1.04 nM; in the assay with human GLP-1 receptor, 13.6 nM.

B7: Example 322 (peptide)
peptide: YXEGTXTSDXXIXLDXKAQXKFIXXLIEGGPSSGAPPPS
modifications: Y-Aib-EGT-αMeF(2F)-TSD-4Pal-Aib-I-αMeL-LD-Orn-K((2-[2-(2-Amino-ethoxy)-ethoxy]-acetyl)2-(γ-Glu)-CO-(CH2)10-CH3)AQ-Aib-K((2-[2-(2-Amino-ethoxy)-ethoxy]-acetyl)2-(γ-Glu)-CO-(CH2)10-CH3)FI-(D-Glu)-αMeY-LIEGGPSSGAPPPS-NH2
For B7, the “cAMP EC50 (1.0% HSA)” value with human glucagon receptor was > 9950 nM; with human GIP receptor it was 0.617 nM; with human GLP-1 receptor it was 8.09 nM. For the same molecule, the “cAMP Emax (1.0% HSA)” value with human GLP-1 receptor was 94.5%. Besides, the values for the cAMP EC50 (in assay [1]; in the assay with hGLP-1R; in assay [2]) were 0.00937 nM, 0.144 nM and > 9950 nM, respectively. Further, the results for the cAMP Emax (in assay [1]; with hGLP-1R) were 101% and 100%, respectively.

B8: Example 300 (peptide)
peptide: YXEGTXTSDYXIXLDXKAQXKFIXXLIEGGPSSGAPPPS
modifications: Y-Aib-EGT-αMeF(2F)-TSDY-Aib-I-αMeL-LD-Orn-K((2-[2-(2-Amino-ethoxy)-ethoxy]-acetyl)2-(γ-Glu)-CO-(CH2)10-CH3)AQ-Aib-K((2-[2-(2-Amino-ethoxy)-ethoxy]-acetyl)2-(γ-Glu)-CO-(CH2)10-CH3)FI-(D-Glu)-αMeY-LIEGGPSSGAPPPS-NH2
As for B8, the “cAMP EC50 (1.0% HSA)” value with human glucagon receptor was > 9950 nM; with human GIP receptor, 1.25 nM; in the assay with human GLP-1 receptor it was 19.6 nM. The “cAMP Emax (1.0% HSA)” value in the assay with human GIP receptor came out at 91.5%. Moreover, the cAMP EC50 is 0.0128 nM in assay [1], 0.194 nM with hGLP-1R and > 9950 nM in assay [2]. Moreover, the cAMP Emax in assay [1] amounted to 102%; with hGLP-1R it was 107%.
